This data set can be described thus: protein stability index of a GFP-peptide fusion (GPS, HEK-293T) (PSI 1-6); higher = more stable. To be noted: c terminus: a fixed tail appended.

36 sequences from the supplement of paper PMC10567573 can be followed below.

± gives the standard deviation.
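Note: 24-mer peptide tiles fused after GFP, lentivirally expressed, FACS-sorted into six equal bins by GFP/DsRed ratio, decoded by Illumina sequencing, PSI is the read-weighted mean bin number.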

Turning to SPRTRGSWSQPQPLKAPCLNGDTT [RASAL3], the protein stability index stood at 3.92 ± 0.11 (treatment: DMSO) and 4.03 ± 0.23 (treatment: MLN4924 1 uM, 8 h).
Consider LEEKCQQPASELLQDVRVNQSRCE [TRIM15], for which the protein stability index worked out at 5.58 ± 0.22 (treatment: DMSO) and 5.53 ± 0.5 (treatment: MLN4924 1 uM, 8 h).
The corresponding values for TIGASFMTKTVQYQNELHKFLIWD [RAB22A] are 2.5 ± 0.45 and 2.01 ± 0.16.
For LDEQNKRPCRKFLLTGQCDFGSNC [ZMAT5], in that order: 3.34 ± 0.42 and 3.323 ± 0.006.
The corresponding values for GVCYSESQSSASQPRLSYAEMAED [CLCN6] are 5.11 ± 0.23 and 5.28 ± 0.31.
As to ETAEEVSARIVQVVTAEAVAVLKG [MAP2], the protein stability index stood at 3.36 ± 0.27 (treatment: DMSO) and 3.45 ± 0.34 (treatment: MLN4924 1 uM, 8 h).
Turning to SSGPARGIAIVSVLVILISIVIFC [KCNA3], the protein stability index runs as follows: (treatment: DMSO) 2.21 ± 0.21; (treatment: MLN4924 1 uM, 8 h) 2.21 ± 0.28.
For QLSRLNITYPMLFKLTNKNSDRMT [UFD1], in that order: 2.33 ± 0.14 and 2.58 ± 0.42.
For LRRELELLGRERDRVQVERDGLAE [PRPH], in that order: 4.6 ± 0.49 and 4.8 ± 0.36.
The corresponding values for MNLHVYISEHEHFTDFNATSALFW [CLPTM1] are 2.94 ± 0.5 and 2.79 ± 0.39.
For the sequence QGDSSQQSLKGHLRNNFQKQLLSN [ZC2HC1C], the protein stability index was 3.31 ± 0.27 (treatment: DMSO) and 3.88 ± 0.16 (treatment: MLN4924 1 uM, 8 h).
For QKEDVKPYQVNGVNPAYPESRYTS [ETS1], in that order: 4.53 ± 0.18 and 4.48 ± 0.15.
For AEKIEYNESMKAYHNSPAYLAYIN [SMARCE1], in that order: 3.31 ± 0.5 and 3.46 ± 0.31.
For the sequence PKKISDLDHCANRVLMYGSELDAD [TPH1], the protein stability index (treatment: DMSO) turned out to be 4.58 ± 0.083 and the protein stability index (treatment: MLN4924 1 uM, 8 h) worked out at 4.47 ± 0.088.
TITSEVIEKCTTPLSDDHDEKYGV [CRY1]: the protein stability index (treatment: DMSO) turned out to be 5.21 ± 0.12 and the protein stability index (treatment: MLN4924 1 uM, 8 h) is 4.99 ± 0.22.
For the sequence KYKKAVGLKLKQEKKEAYLKLKQG [WDR88], the protein stability index is, setting by setting: (treatment: DMSO) 2.98 ± 0.87; (treatment: MLN4924 1 uM, 8 h) 3.58 ± 0.27.
For LLHSQARLAELEAQVRKLELERAQ [FBF1], in that order: 3.68 ± 0.15 and 3.5 ± 0.58.
For FARHIKKSEGQKIPKVELQISIYG [GULP1], in that order: 2.06 ± 0.41 and 1.9 ± 0.26.
The corresponding values for SKARRKKIMIIICCVILGIVIAST [STX1A] are 2.69 ± 0.23 and 2.67 ± 0.33.
For the sequence WEEWQFLSPAQKDLYRDVMLENYS [ZNF649], the protein stability index worked out at 3.48 ± 0.35 (treatment: DMSO) and 3.6 ± 0.2 (treatment: MLN4924 1 uM, 8 h).
The corresponding values for GVSEILLKTQMKMSLKCLAARAVR [FEM1B] are 2.65 ± 0.56 and 2.58 ± 0.26.
For LVNDDDEEADDTRYTQGTGGDEVD [ZC3H15], in that order: 5.43 ± 0.31 and 5.67 ± 0.23.
The corresponding values for PTPSSPLPSVPVSVPASDPRSCSS [PLEKHN1] are 5.15 ± 0.2 and 5.14 ± 0.26.
For the sequence YLGLVRTHINAVVAKIQAKIPGAK [RTN1], the protein stability index is 2.35 ± 0.29 (treatment: DMSO) and 2.06 ± 0.54 (treatment: MLN4924 1 uM, 8 h).
Take ISEKLTLLPTLYEIHSKTTAYSRL [RNF180]: the protein stability index was 2.51 ± 0.29 (treatment: DMSO) and 2.06 ± 0.085 (treatment: MLN4924 1 uM, 8 h).
For DPSGKGKGKAGRVDLVDESGYVSG [TPPP], in that order: 5.1 ± 0.42 and 5.27 ± 0.16.
For AKDEDQWTALHFAAQNGDESSTRL [RIPK4], in that order: 4.54 ± 0.95 and 5.086 ± 0.023.
For VEKVLRRWVDEEWPKRERGDPSRH [EDARADD], in that order: 2.97 ± 0.43 and 3.28 ± 0.67.
On to TMARIRRVYVSGLMKGGADLFVEN [APMAP], for which the protein stability index by setting is: (treatment: DMSO) 2.2 ± 0.3; (treatment: MLN4924 1 uM, 8 h) 2.07 ± 0.25.
For ECGKRFLRSSDLYRHQRLHTGERP [ZNF449], in that order: 3.08 ± 0.26 and 3.22 ± 0.24.
As for RPLQVNTADHRIYSYVVSRPQPRG [FAF2], the protein stability index runs as follows: (treatment: DMSO) 3.27 ± 0.43; (treatment: MLN4924 1 uM, 8 h) 3.49 ± 0.2.
For the sequence ATIENNRVILEIDNARLAVDDFRL [KRT13], the protein stability index runs as follows: (treatment: DMSO) 2.15 ± 0.16; (treatment: MLN4924 1 uM, 8 h) 2.31 ± 0.35.
In the case of DNPPTFSQVSYFTYIPENNARGAS [PCDHGA10], the protein stability index by setting is: (treatment: DMSO) 3.44 ± 0.46; (treatment: MLN4924 1 uM, 8 h) 3.49 ± 0.49.
For the sequence REQLQAEASERFAAGYIQCMHEVH [HES6], the protein stability index (treatment: DMSO) was 3.62 ± 0.37 and the protein stability index (treatment: MLN4924 1 uM, 8 h) worked out at 3.77 ± 0.22.
Take SLHDHDGSSGASDQDTLAPLPHPG [DVL3]: the protein stability index (treatment: DMSO) is 5.33 ± 0.25 and the protein stability index (treatment: MLN4924 1 uM, 8 h) stood at 5.19 ± 0.33.
For EARICRLLKHSNIVRLHDSISEEG [CAMK2B], in that order: 3.32 ± 0.41 and 3.46 ± 0.28.
